# Assay results taken from article PMC7459580, “Molecular Basis for Endocrine Disruption by Pesticides Targeting Aromatase and Estrogen Receptor” (International Journal of Environmental Research and Public …, 2020).
# Columns and labels:
# [1] = test system: C[C@]12CCC(=O)C=C1CC[C@@H]1[C@@H]2CC[C@]2(C)C(=O)CC[C@@H]12; assay: purified protein; conditions: heme; NADPH active site
# aromatase (Aro) = biological target: T1, aromatase (Aro) (Homo sapiens, UniProt P11511); assay: estrone competitive ELISA with purified aromatase and CPR; assay type: biochemical; conditions: read-out: % residual activity at 1000 nM
# T1 construct: gene CYP19A1; recombinant human aromatase; with human cytochrome P450 reductase (hCPR), electron donor
# T1 sequence (P11511 whole entry): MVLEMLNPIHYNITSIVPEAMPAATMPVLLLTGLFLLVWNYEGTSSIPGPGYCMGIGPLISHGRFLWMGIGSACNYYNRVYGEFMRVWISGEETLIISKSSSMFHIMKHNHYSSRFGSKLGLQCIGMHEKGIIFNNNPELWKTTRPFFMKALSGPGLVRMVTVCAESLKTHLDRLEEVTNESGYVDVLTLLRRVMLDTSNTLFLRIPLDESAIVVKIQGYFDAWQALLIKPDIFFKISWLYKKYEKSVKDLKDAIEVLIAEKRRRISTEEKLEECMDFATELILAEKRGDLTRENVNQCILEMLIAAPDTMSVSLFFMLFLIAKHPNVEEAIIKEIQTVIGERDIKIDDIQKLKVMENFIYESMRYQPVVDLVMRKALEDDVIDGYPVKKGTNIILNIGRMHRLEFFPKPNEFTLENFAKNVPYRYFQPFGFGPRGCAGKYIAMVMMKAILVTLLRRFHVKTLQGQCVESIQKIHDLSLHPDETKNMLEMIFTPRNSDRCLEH
# T1 sequence (P16435 2-677, further chain): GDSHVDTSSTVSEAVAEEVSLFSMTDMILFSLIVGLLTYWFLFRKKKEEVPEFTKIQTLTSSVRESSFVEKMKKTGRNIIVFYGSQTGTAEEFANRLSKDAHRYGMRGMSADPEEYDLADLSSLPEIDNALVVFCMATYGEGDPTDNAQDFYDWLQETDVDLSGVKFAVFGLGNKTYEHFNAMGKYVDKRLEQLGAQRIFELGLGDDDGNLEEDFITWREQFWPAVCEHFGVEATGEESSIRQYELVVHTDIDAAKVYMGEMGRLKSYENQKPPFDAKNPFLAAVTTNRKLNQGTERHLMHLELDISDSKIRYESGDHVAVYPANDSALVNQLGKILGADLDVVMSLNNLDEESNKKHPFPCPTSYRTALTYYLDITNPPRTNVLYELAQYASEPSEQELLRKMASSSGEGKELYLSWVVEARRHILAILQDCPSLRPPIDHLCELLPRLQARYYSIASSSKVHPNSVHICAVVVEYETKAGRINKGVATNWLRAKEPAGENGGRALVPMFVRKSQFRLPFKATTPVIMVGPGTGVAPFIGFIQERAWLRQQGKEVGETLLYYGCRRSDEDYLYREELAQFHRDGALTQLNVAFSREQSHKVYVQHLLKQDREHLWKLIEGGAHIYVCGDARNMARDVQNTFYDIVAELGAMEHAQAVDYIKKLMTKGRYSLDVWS
molecule,measurement,setting,value
aromatase (Aro) (Homo sapiens),Km,[1],0.0413 ± 0.0082 µM
same,kcat,[1],0.0003 ± 1.67e-05 s⁻¹
CC(C)(C#N)c1cc(Cn2cncn2)cc(C(C)(C)C#N)c1 [anastrozole],remaining activity at 1 µM,aromatase (Aro),0.7%
